# T1: Erythrobacter litoralis HTCC2594 epoxide hydrolase rEEH1 (EEH1), SEQ ID NO: 13 (Erythrobacter litoralis, UniProt Q2NAV3)
# T1 construct: microsomal-EH-like
# T1 sequence (Q2NAV3 1-373): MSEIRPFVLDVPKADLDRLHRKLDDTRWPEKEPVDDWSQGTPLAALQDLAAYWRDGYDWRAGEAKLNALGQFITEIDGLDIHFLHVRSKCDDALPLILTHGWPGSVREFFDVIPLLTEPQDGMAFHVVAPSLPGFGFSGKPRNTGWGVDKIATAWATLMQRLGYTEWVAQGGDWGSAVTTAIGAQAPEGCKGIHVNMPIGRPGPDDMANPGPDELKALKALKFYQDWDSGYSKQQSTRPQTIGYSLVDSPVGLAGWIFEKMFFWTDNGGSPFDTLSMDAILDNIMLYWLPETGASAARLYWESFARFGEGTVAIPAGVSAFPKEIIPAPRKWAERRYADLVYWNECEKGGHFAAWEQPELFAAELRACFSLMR
# B1: Erythrobacter litoralis HTCC2594 epoxide hydrolase rEEH1 (EEH1), SEQ ID NO: 13 (Erythrobacter litoralis HTCC2594) (protein)
# chain: T1 sequence (Q2NAV3 1-373)
# notes: microsomal-EH-like
# Experiments:
# [1] = target: T1, Erythrobacter litoralis HTCC2594 epoxide hydrolase rEEH1 (EEH1), SEQ ID NO: 13; assay: Kinetic parameters of purified rEEH1 by GC analysis with (R)- or (S)-styrene oxide; format: biochemical; conditions: 100 mM potassium phosphate pH 8.0, 30° C.
# Procedure: (§1) Kinetic parameters of the rEEH1, rEEH2, rEEH3, sEEH, nEEH, and rEEH were determined by a GC analysis using (R)- or (S)- styrene oxide substrate. 100 ul of purified EHases were mixed with various concentrations of (R)- or (S)- styrene oxide in a 10 ml tube containing 1 ml of potassium phosphate buffer (100 mM, pH 8.0), and shake-incubated at 200 rpm and a temperature of 30° C. The extraction mixtures were extracted with 2 ml of hexane, and enantiomeric excess [ee; ee=100×(S−R)/(S+R)] toward enantiopure styrene oxide was analyzed with a chiraldex gamma-cyclodextrin trifluoroacetyl(G-TA) capillary GC column. Wherein, the FIG. 8 was diagramed with GC analysis for the hydrolyzing activities of enantioselective EHases (rEEH1, rEEH2, and rEEH3) toward racemic styrene oxide.
# (§2) Kinetic parameters were estimated by non-linear regression analysis using a Sigma Plot program, and various substrates as depicted in FIG. 1 were also tested for the enantioselective hydrolyzing activity by rEEH1, rEEH2, rEEH3, sEEH, nEEH, and rEEH.
# [2] = Effects of pH and temperature on the EHase activity of rEEH1, rEEH2 and rEEH3; format: biochemical
# Procedure: The effect of pH on the EHase activity was measured with 50 mM sodium acetate-acetic acid buffer (pH 4.0 and 6.0), 50 mM MES buffer (pH 6.0 to 7.0), 50 mM Phosphate buffer (pH 7.0 to 9.0), and 50 mM Glycine buffer (pH 9.0 and 10.0), and the optimum reaction temperature on the EHase activity was measured over a temperature of range from 10 to 70° C. at pH 7.5.
# [3] = Kinetic parameters of purified EHases by GC analysis, (S)-styrene oxide; format: biochemical; conditions: (S)-enantiomer of styrene oxide, Table 5
# Procedure: as §1, §2
# [4] = Kinetic parameters of purified EHases by GC analysis, (R)-styrene oxide; format: biochemical; conditions: (R)-enantiomer of styrene oxide, Table 5
# Procedure: as §1, §2
# [5] = Enantioselective hydrolyzing activity of purified EHases toward SO; format: biochemical
# Procedure: as §1, §2
# [6] = Enantioselective hydrolyzing activity of purified EHases toward GPE; format: biochemical
# Procedure: as §1, §2
# [7] = Enantioselective hydrolyzing activity of purified EHases toward EX; format: biochemical
# Procedure: as §1, §2
# [8] = Enantioselective hydrolyzing activity of purified EHases toward EB; format: biochemical
# Procedure: as §1, §2
# [9] = Enantioselective hydrolyzing activity of purified EHases toward EF; format: biochemical
# Procedure: as §1, §2
# [10] = Substrate selectivity of rEEH1, rEEH2 and rEEH3 toward various epoxide substrates; format: biochemical; conditions: purified enzyme
# Procedure: Also, the substrate selectivity of rEEH1, rEEH2 and rEEH3 toward various epoxide substrates depicted in FIG. 1 was same to Table 4.
# as §2
# [11] = substrate: c1ccc([C@@H]2CO2)cc1; assay: Kinetic parameters of purified rEEH1 by GC analysis with (R)- or (S)-styrene oxide; format: biochemical, Erythrobacter litoralis HTCC2594; conditions: other: 100 mM potassium phosphate pH 8.0, 30° C.
# Procedure: as §1, §2
# [12] = substrate: c1ccc([C@H]2CO2)cc1; assay: as above; format: biochemical, Erythrobacter litoralis HTCC2594; conditions: other: 100 mM potassium phosphate pH 8.0, 30° C.
# Procedure: as §1, §2
molecule,measurement,setting,value
c1ccc([C@H]2CO2)cc1 [(S)-styrene oxide],Vmax,[1],1.18 µmol/min
c1ccc([C@@H]2CO2)cc1 [(R)-styrene oxide],Vmax,[1],2.3 µmol/min
B1,optimum temperature (maximum hydrolysis rate),[2]; 10 to 70° C. at pH 7.5,50 °C
same,optimum pH,"[2]; activity toward styrene oxide, pH 4.0 to 10.0",6.5
same,kcat Km,[3],10.6 s⁻¹ mM⁻¹
same,kcat Km,[4],16.3 s⁻¹ mM⁻¹
same,Hydrolysis rate SO (R),[5]; (R)-enantiomer,28.0 (×10^−2) mg/min
same,Hydrolysis rate SO (S),[5]; (S)-enantiomer,9.00 (×10^−2) mg/min
same,"enantiomer preference in hydrolysis of styrene oxide, in words",[5]; purified enzyme,(R)-styrene oxide was hydrolyzed faster than (S)-styrene oxide
same,Hydrolysis rate GPE (R),[6]; (R)-enantiomer,11.0 (×10^−2) mg/min
same,Hydrolysis rate GPE (S),[6]; (S)-enantiomer,20.0 (×10^−2) mg/min
same,Hydrolysis rate EX (R),[7]; (R)-enantiomer,7.00 (×10^−2) mg/min
same,Hydrolysis rate EX (S),[7]; (S)-enantiomer,8.00 (×10^−2) mg/min
same,Hydrolysis rate EB (R),[8]; (R)-enantiomer,15.0 (×10^−2) mg/min
same,Hydrolysis rate EB (S),[8]; (S)-enantiomer,15.0 (×10^−2) mg/min
same,Hydrolysis rate EF (R),[9]; (R)-enantiomer,4.00 (×10^−2) mg/min
same,Hydrolysis rate EF (S),[9]; (S)-enantiomer,15.0 (×10^−2) mg/min
same,"substrate selectivity, in words",[10],hydrolyzed enantioselectively toward monosubstituted epoxides with bulky ring at C-1 position
same,Km,[11],2.9 mM
same,Vmax,[11],2.3 µmol/min
same,kcat,[11],49.1 s⁻¹
same,Km,[12],2.3 mM
same,kcat,[12],24.5 s⁻¹
